# Test results published in paper doi:10.1101/2021.01.27.428455 (bioRxiv, 2021).
# Values joined by “and” are separate entries in the source; they are usually repeats but may differ in a detail not shown here. Equal entries are not always repeated. Where two headings read alike, the source gives them in different places.
# B1: Lactococcus lactis Csm3 Asp30Ala (natural protein)
# chain: MKLVIEGTIVLKTGMHIGGSSDFSAIGAVASPVVRDTLTRLPLIPGSSLKGKMRYLLAKELNNGILLNEPNNDQDEILRLFGSSEKDKIRRARLKFNDIKLSNLAELETFNVSSTEVKFENTINRKTAVANPRQIERVIAGSKFDFEIFYNLDDIKEVEKDFENIKQGFDLLEFDYLGGHGTRGSGRIAFENLSVITAVGNFEKINTLNEILGA
# B2: Lactococcus lactis Csm2 with N-terminal His6-tag (natural protein)
# chain: TELKIGNEKVNSTNFGDFAEKAIRGINHKPFVNSKGGEQKITTSKIRGILELVNKVYNRVINTNDVELSENILADIAYIKVKIAYESGREPVVKDFIQRTAFTAAITDVMNQRTRESFLLFARYVESLIAYFKFYGGKD
# Experiments:
# Assay in all cases: cryo-EM structure
# cryo-EM structure [1] = molecular target: the molecule itself
# cryo-EM structure [2] = molecular target: the molecule itself; remark: listed apart in the source
# [3] = molecular target: B1
Binder,stoichiometry N (cryo-EM structure [1]),stoichiometry N (cryo-EM structure [2]),binding result [3]
B1,4,3,
B2,,3 and 2,binds
